According to US20080027145A1 (published 2008):
Like-named read-outs stand apart in the source and are kept apart here. One block for each binder: values may come before it.

Tests used:
human Bcl-2 ΔC22 [1] = molecular target: T1, human Bcl-2 ΔC22 (human, UniProt P10415 1-217); assay: solution competition on Biacore
T1 construct: Recombinant, bacterial, N-terminal HexaHis fusion; hydrophobic C-terminus removed; also called hBcl-2

human Bcl-xL ΔC24 [2] = molecular target: T2, human Bcl-xL ΔC24 (human, UniProt Q07817 1-209); assay: solution competition on Biacore
T2 construct: Expressed as GST fusion and cleaved off the glutathione column; also called hBcl-xL ΔC24

[3] = molecular target: T3, human Bcl-w ΔC29 (C29S A128E) (human, UniProt Q92843 1-164); assay: solution competition on Biacore
T3 construct: range 1-164; residues 1-209), which are those of Bcl-xL; also called hBcl-w
T3 sequence: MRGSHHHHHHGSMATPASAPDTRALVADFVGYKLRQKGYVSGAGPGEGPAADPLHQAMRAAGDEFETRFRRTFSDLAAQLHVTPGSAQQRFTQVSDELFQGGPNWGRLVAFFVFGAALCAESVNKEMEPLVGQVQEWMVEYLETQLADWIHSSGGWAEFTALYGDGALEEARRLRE

[4] = molecular target: T4, FLAG-tagged mouse Mcl-1 (full-length) (mouse, UniProt P97287 1-331); assay: co-immunoprecipitation from 293T lysates, 35S fluorography (D) and immunoblot of the same filters (E) [E]
T4 construct: whole, on cells; Full-length, expressed in 293T cells, precipitated from lysates; also called FLAG-Mcl-1; Mcl-1 (in cells)
Excerpt: (§1) Equivalent ³⁵S-labeled lysates harvested from 293T cells were immunoprecipitated with antibodies to the HA, FLAG (FL) or control (C) tags.
(§2) The maintenance, transfection and metabolic labeling of the human embryonic kidney (HEK) 293T cells with ³⁵S-methionine/cysteine (NEN) as well as co-immunoprecipitation have been described (Huang et al., Supra; Moriishi et al., Proc Natl Acad Sci USA 96:9683-9688, 1999; O'Conner et al., Supra). Briefly, equivalent TCA-precipitable lysates were immunoprecipiated using the mouse monoclonal antibodies to HA (HA.11; CRP), FLAG (M2; Sigma) and control Glu-Glu (CRP) tags. The proteins were resolved by SDS:PAGE, transferred onto nitrocellulose membranes and detected by fluorography (Amplify; Amersham Biosciences).

human Bcl-2 ΔC22 [5] = molecular target: T1, human Bcl-2 ΔC22; assay: Biacore solution competition against immobilised mouse wtBimBH3
Excerpt: (§3) The baseline response (control channel) was subtracted to obtain the absolute binding response. […] Theoretically, IC50=[A]/2+KD, where [A] is the analyte concentration.
(§4) To assess if other BH3 peptides bind pro-survival proteins similarly, we directly compared their binding affinities in solution using a competitive binding assay. […] As the IC50 values reflect relative binding affinities (see Experimental Procedures), we used this assay to compare the binding affinities of eight BH3 peptides (Table 3) to the five pro-survival proteins.

human Bcl-xL ΔC24 [6] = molecular target: T2, human Bcl-xL ΔC24; assay: as above
Excerpt: as §3, §4

[7] = molecular target: T3, human Bcl-w ΔC29 (C29S A128E); assay: as above
Excerpt: as §3, §4

human Bcl-xL ΔC24 [8] = molecular target: T2, human Bcl-xL ΔC24; assay: as above; remark: listed apart in the source
Excerpt: FIG. 1 is a graphical representation showing competitive binding assays. […] (C) Solution competition assay. […] The line (at 430 s) indicates the response used for calculating the IC50. […] (Irregular responses after 500 s are due to washing the chips after analyte dissociation). Color reproductions are available from the patentees on request.
The baseline response (control channel) was subtracted to obtain the absolute binding response.

[9] = molecular target: T5, FLAG-tagged human Bcl-2 (full-length) (human, UniProt P10415 1-239); assay: co-immunoprecipitation from 293T lysates, 35S fluorography (F) and immunoblot of the same filters (G) [G]
T5 construct: whole, on cells; Full-length, expressed in 293T cells, precipitated from lysates; also called FLAG-Bcl-2; Bcl-2 (in cells)
Excerpt: as §1, §2

[10] = molecular target: T6, FLAG-tagged human Bcl-xL (full-length) (human, UniProt Q07817 1-233); assay: as above
T6 construct: whole, on cells; Full-length, expressed in 293T cells, precipitated from lysates; also called FLAG-Bcl-xL; Bcl-xL (in cells)
Excerpt: as §1, §2

human Bcl-xL ΔC24 [11] = molecular target: T2, human Bcl-xL ΔC24; assay: SPR direct binding, protein over immobilised NoxaBH3
Method: Affinity measurements were performed at room temperature on a Biacore 3000 biosensor (Biacore) with HBS (10 mM HEPES pH 7.2, 150 mM NaCl, 3.4 mM EDTA, 0.005% Tween 20) as the running buffer. […] Residual bound proteins were desorbed with 50 mM NaOH or 6 M GuHCl (pH 7.2), followed by two washes with running buffer. Binding kinetics were derived from sensorgrams, following subtraction of baseline responses, using BIA evaluation software (version 3, Biacore) (Wilson-Annan et al., Supra).

human Bcl-xL ΔC24 [12] = molecular target: T2, human Bcl-xL ΔC24; assay: solution competition on Biacore, immobilised m wtBimBH3
Excerpt: as §3

[13] = molecular target: T3, human Bcl-w ΔC29 (C29S A128E); assay: solution competition on Biacore (FIG. 9C)
Excerpt: as §3

human Bcl-2 ΔC22 [14] = molecular target: T1, human Bcl-2 ΔC22; assay: Biacore solution competition against immobilised mouse wtBimBH3; remark: listed apart in the source
Excerpt: as §3

human Bcl-xL ΔC24 [15] = molecular target: T2, human Bcl-xL ΔC24; assay: solution competition on Biacore (FIG. 9C)
Excerpt: as §3

human Bcl-xL ΔC24 [16] = molecular target: T2, human Bcl-xL ΔC24; assay: solution competition on Biacore (IC50 ratio)
[17] = molecular target: T3, human Bcl-w ΔC29 (C29S A128E); assay: Biacore solution competition against immobilised mouse wtBimBH3; remark: listed apart in the source
Excerpt: as §3

T2 sequence (Q07817 other isoform, or with tags, fused parts or gaps mutant limits assumed): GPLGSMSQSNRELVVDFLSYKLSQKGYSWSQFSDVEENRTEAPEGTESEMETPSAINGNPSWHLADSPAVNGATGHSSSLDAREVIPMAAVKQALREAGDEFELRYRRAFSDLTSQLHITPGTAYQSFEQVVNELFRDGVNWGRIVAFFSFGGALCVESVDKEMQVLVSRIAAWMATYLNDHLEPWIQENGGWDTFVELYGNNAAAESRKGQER
T1 sequence (P10415 other isoform, or with tags, fused parts or gaps mutant limits assumed): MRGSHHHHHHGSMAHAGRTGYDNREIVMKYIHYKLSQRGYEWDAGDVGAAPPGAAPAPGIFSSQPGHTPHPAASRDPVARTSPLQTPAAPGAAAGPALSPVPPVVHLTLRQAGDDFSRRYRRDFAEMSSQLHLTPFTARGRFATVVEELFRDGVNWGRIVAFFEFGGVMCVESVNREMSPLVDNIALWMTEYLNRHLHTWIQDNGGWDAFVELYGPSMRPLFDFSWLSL
T4 sequence (P97287 other isoform, or with tags, fused parts or gaps): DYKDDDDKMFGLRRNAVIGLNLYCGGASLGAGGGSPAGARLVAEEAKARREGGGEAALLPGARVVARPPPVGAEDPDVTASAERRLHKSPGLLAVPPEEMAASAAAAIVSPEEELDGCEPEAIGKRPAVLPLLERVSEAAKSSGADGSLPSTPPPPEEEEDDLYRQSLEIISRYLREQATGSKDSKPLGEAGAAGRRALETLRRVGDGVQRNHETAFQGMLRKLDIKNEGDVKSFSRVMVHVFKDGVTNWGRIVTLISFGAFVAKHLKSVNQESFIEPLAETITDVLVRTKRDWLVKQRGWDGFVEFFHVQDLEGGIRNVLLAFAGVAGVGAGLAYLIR
T6 sequence (Q07817 other isoform, or with tags, fused parts or gaps): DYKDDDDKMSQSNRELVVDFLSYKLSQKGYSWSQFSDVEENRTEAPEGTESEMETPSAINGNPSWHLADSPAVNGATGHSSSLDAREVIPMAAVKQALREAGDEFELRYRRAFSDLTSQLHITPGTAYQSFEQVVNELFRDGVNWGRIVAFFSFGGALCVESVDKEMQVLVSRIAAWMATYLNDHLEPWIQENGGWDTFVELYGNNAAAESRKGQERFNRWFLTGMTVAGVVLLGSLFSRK
T5 sequence (P10415 other isoform, or with tags, fused parts or gaps): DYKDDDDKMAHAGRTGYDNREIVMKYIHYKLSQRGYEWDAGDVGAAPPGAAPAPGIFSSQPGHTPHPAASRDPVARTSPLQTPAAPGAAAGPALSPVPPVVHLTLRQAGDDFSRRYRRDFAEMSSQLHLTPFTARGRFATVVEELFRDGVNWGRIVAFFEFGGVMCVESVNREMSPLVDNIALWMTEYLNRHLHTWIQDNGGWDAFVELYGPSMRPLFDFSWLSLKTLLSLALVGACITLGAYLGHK

B3: Hrk (26-51) BH3 peptide, human (peptide)
peptide: not shown
notes: also called HrkBH3
IC50 (human Bcl-2 ΔC22 [5]): 320 nM | IC50 (human Bcl-xL ΔC24 [6]): 3.7 nM | IC50 [7]: 49 nM

Binder: MEGSDALALRLACIGDEMDVSLRAP (also called BikBH3; hBik) [Bik (51-75) BH3 peptide, human]
IC50 (read off the curve) (human Bcl-xL ΔC24 [8]): ~40 nM | IC50 (human Bcl-xL ΔC24 [6]): 43 nM | IC50 [7]: 12 nM

Binder: PAELEVECATQLRRFGDKLNFRQKLL (also called NoxaBH3; wt NoxaBH3) [Noxa (18-43) BH3 peptide, human]
binding result (human Bcl-xL ΔC24 [11]): no binding | IC50 (human Bcl-xL ΔC24 [12]): > 100000 nM | IC50 (human Bcl-2 ΔC22 [5]): > 100000 nM | IC50 (human Bcl-xL ΔC24 [6]): > 100000 nM | IC50 [7]: > 100000 nM

Binder: PAELEVECATQLRRIGDKLNFRQKLL (also called Noxa m2; F32I) [Noxa (18-43) mt2]
fold increase of binding against wt NoxaBH3 (human Bcl-xL ΔC24 [15]): > 100 fold | fold tighter than wild type (human Bcl-xL ΔC24 [16]): ≥ 90 fold | IC50 (human Bcl-xL ΔC24 [12]): 1100 nM | IC50 (human Bcl-2 ΔC22 [14]): > 100000 nM | binding result [17]: binds

Binder: PAELEVECATQLRRFGDELNFRQKLL (also called Noxa m1; K35E) [Noxa (18-43) mt1]
fold increase of binding against wt NoxaBH3 (human Bcl-xL ΔC24 [15]): > 20 fold | fold tighter than the wild-type peptide (human Bcl-xL ΔC24 [16]): ≥ 17 fold | IC50 (human Bcl-xL ΔC24 [12]): 5800 nM | IC50 (human Bcl-2 ΔC22 [14]): > 100000 nM | binding result [17]: binds

Binder: NLWAAQRYGRELRRMSDEFVDSFKKG (also called BadBH3) [Bad (103-128) BH3 peptide, human]
IC50 (human Bcl-2 ΔC22 [5]): 16 nM | IC50 (human Bcl-xL ΔC24 [6]): 5.3 nM | IC50 [7]: 30 nM

Binder: DIIRNIARHLAQVGDSMDRSIPPG (also called BidBH3) [Bid (81-104) BH3 peptide, human]
IC50 (human Bcl-2 ΔC22 [5]): 6800 nM | IC50 (human Bcl-xL ΔC24 [6]): 82 nM | IC50 [7]: 40 nM

Now from value to binder:

binding result (human Bcl-2 ΔC22 [1]): no binding | binding result (human Bcl-xL ΔC24 [2]): no binding | binding result [3]: no binding
B1: m Noxa2 (68-93) BH3 peptide (peptide)
peptide: PADLKDECAQLRRIGDKVNLRQKLLN
notes: also called mNoxa B; mouse Noxa BH3 peptide 2

binding result [4]: no binding
B2: HA-tagged full-length mouse Bad (other)
chain: YPYDVPDYAMGTPKQPSLAPAHALGLRKSDPGIRSLGSDAGGRRWRPAAQSMFQIPEFEPSEQEDASATDRGLGPSLTEDQPGPYLAPGLLGSNIHQQGRAATNSHHGGAGAMETRSRHSSYPAGTEEDEGMEEELSPFRGRSRSAPPNLWAAQRYGRELRRMSDEFEGSFKGLPRPKSAGTATQMRQSAGWTRIIQSWWDRNLGKGGSTPSQ
notes: whole, on cells; also called HA-Bad; Bad (in cells)

binding result (human Bcl-2 ΔC22 [1]): no binding | binding result (human Bcl-xL ΔC24 [2]): no binding | binding result [3]: no binding
Binder: RAELPPEFAAQLRKIGDKVYCTWSAP (also called mouse Noxa BH3 peptide 1) [m Noxa1 (16-41) BH3 peptide]

IC50 (human Bcl-2 ΔC22 [5]): 3 nM | IC50 (human Bcl-xL ΔC24 [6]): 9.7 nM | IC50 [7]: 9.8 nM
Binder: HRAEVQIARKLQCIADQFHRLHTQ (also called BmfBH3) [m Bmf (128-151) BH3 peptide]

binding result [9]: no binding | binding result [10]: no binding
B4: HA-tagged full-length mouse Noxa (other)
chain: YPYDVPDYAMPGRKARRNAPVNPTRAELPPEFAAQLRKIGDKVYCTWSAPDITVVLAQMPGKSQKSRMRSPSPTRVPADLKDECAQLRRIGDKVNLRQKLLNLISKLFNLVT
notes: whole, on cells; also called HA-Noxa; Noxa (full-length mouse Noxa bearing two BH3s)

IC50 (human Bcl-xL ΔC24 [2]): 100 nM | IC50 [13]: 410 nM | IC50 (human Bcl-xL ΔC24 [12]): 110 nM | binding result (human Bcl-2 ΔC22 [14]): binds
B5: Noxa (18-43) mt3 (peptide)
peptide: PAELEVECATQLRRIGDELNFRQKLL
notes: also called Noxa m3 (peptide); double mutant K35E F32I
